# Measurements from patent publication US20170190753A1 (LABORATOIRE FRANCAIS DU FRACTIONNEMENT ET DES …, published 2017).
# Molecular target: C3 convertase complex (UniProt P01024 23-1663; P00751 260-764)
# Assay: cell-based or functional assay
# Throughout, for C3 convertase activity % of the control: test concentration or dose not given here.
# Chain of C3 convertase complex (P01024 23-1663, chain 1 of 2): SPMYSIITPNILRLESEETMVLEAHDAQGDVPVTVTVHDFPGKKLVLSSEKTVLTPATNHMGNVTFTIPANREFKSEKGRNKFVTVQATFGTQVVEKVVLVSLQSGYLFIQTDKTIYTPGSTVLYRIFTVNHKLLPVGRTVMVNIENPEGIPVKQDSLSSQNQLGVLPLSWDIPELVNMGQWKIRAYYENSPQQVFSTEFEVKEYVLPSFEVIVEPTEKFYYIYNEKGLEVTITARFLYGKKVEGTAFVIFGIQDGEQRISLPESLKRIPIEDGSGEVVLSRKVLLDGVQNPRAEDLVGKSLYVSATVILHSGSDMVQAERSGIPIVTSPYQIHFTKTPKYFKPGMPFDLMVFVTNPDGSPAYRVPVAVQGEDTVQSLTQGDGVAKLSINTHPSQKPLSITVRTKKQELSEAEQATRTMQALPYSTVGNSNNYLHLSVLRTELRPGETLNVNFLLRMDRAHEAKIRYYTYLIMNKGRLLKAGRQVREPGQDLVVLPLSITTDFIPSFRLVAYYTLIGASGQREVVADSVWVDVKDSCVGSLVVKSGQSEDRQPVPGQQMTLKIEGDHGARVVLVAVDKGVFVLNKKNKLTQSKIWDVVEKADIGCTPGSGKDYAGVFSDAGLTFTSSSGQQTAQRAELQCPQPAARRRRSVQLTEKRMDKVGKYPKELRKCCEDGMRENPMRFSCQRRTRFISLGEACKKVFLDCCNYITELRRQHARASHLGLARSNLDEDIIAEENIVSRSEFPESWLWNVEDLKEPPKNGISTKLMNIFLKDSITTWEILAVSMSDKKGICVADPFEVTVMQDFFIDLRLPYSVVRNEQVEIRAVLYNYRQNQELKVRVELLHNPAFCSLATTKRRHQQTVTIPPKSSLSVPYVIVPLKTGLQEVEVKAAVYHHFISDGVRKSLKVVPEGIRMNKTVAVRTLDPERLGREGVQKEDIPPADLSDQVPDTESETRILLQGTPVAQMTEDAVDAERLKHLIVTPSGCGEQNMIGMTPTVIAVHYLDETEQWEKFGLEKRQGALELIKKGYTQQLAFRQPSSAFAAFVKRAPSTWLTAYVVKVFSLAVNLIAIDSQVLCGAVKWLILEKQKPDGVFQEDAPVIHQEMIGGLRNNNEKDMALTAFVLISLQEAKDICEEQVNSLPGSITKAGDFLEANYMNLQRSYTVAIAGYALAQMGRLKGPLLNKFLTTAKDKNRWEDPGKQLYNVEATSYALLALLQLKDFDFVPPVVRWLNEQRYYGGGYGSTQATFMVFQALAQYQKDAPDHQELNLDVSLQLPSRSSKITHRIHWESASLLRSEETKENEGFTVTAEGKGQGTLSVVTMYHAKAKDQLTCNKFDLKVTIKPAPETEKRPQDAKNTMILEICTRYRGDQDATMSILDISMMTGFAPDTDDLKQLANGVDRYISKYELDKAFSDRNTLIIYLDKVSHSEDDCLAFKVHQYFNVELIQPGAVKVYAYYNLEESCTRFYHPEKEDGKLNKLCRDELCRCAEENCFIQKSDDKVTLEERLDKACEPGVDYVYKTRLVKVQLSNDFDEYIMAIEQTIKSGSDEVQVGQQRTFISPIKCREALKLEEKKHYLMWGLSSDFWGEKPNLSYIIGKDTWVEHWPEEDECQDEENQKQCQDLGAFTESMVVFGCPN
# Chain of C3 convertase complex (P00751 260-764, chain 2 of 2): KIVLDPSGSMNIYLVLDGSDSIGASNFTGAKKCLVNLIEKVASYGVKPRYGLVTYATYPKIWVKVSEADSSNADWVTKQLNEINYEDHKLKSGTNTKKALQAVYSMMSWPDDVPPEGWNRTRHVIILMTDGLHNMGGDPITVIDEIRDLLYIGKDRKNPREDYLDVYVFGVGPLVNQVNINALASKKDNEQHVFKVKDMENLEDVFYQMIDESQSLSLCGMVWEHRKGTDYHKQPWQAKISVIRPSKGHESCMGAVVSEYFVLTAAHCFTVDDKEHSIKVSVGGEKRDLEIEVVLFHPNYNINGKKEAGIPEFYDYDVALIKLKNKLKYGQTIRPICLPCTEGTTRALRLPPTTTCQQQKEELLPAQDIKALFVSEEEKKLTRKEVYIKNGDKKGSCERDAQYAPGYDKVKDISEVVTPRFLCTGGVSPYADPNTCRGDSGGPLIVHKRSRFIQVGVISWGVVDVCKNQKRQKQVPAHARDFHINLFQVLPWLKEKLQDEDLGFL
C3 convertase activity % of the control,C3 convertase activity IC50 [µg/mL],Binder
134 % of the control,0.265,pCEP4-1NT7-11CT20 (other) EDCNELPPRRNTEILTGSWSDQTYPEGTQAIYKCRPGYRSLGNVIMVCRKGEWVALNPLRKCQKRPCGHPGDTPFGTFTLTGGNVFEYGVKAVYTCNEGYQLLGEINYRECDTDGWTNDIPICEVVKCLPVTAPENGKIVSSAMEPDREYHFGQAVRFVCNSGYKIEGDEEMHCSDDGFWSKEKPKCVEISCKSPDVINGSPISQKIIYKENERFQYKCNMGYEYSERGDAVCTESGWRPLPSCEEKSCDNPYIPNGDYSPLRIKHRTGDEITYQCRNGFYPATRGNTAKCTSTGWIPAPRCTLKPCDYPDIKHGGLYHENMRRPYFPVAVGKYYSYYCDEHFETPSGSYWDHIHCTQDGWSPAVPCLRKCYFPYLENGYNQNYGRKFVQGKSIDVACHPGYALPKAQTTVTCMENGWSPTPRCIRVKTGASGCGPPPELLNGNVKEKTKEEYGHSEVVEYYCNPRFLMKGPNKIQCVDGEWTTLPVCIVEESTCGDIPELEHGWAQLSSPPYYYGDSVEFNCSESFTMIGHRSITCIHGVWTQLPQCVAIDKLKKCKSSNLIILEEHLKNKKEFDHNSNIRYRCRGKEGWIHTVCINGRWDPEVNCSMAQIQLCPPPPQIPNSHNMTTTLNYRDGEKVSVLCQENYLIQEGEEITCKDGRWQSIPLCVEKIPCSQPPQIEHGTINSSRSSQESYAHGTKLSYTCEGGFRISEENETTCYMGKWSSPPQCEGLPCKSPPEISHGVVAHMSDSYQYGEEVTYKCFEGFGIDGPAIAKCLGEKWSHPPSCIKTDCLSLPSFENAIPMGEKKDVYKAGEQVTYTCATYYKMDGASNVTCINSRWTGRPTCRDTSCVNPPTVQNAYIVSRQMSKYPSGERVRYQCRSPYEMFGDEEVMCLNGNWTEPPQCKDSTGKCGPPPPIDNGDITSFPLSVYAPASSVEYQCQNLYQLEGNKRITCRNGQWSEPPKCLHPCVISREIMENYNIALRWTAKQKLYSRTGESVEFVCKRGYRLSSRSHTLRTTCWDGKLEYPTCAKRGGSGHHHHHH
27 % of the control,0.489,pCEP4-1NT8-9CT20 (other) EDCNELPPRRNTEILTGSWSDQTYPEGTQAIYKCRPGYRSLGNVIMVCRKGEWVALNPLRKCQKRPCGHPGDTPFGTFTLTGGNVFEYGVKAVYTCNEGYQLLGEINYRECDTDGWTNDIPICEVVKCLPVTAPENGKIVSSAMEPDREYHFGQAVRFVCNSGYKIEGDEEMHCSDDGFWSKEKPKCVEISCKSPDVINGSPISQKIIYKENERFQYKCNMGYEYSERGDAVCTESGWRPLPSCEEKSCDNPYIPNGDYSPLRIKHRTGDEITYQCRNGFYPATRGNTAKCTSTGWIPAPRCTLKPCDYPDIKHGGLYHENMRRPYFPVAVGKYYSYYCDEHFETPSGSYWDHIHCTQDGWSPAVPCLRKCYFPYLENGYNQNYGRKFVQGKSIDVACHPGYALPKAQTTVTCMENGWSPTPRCIRVKTCSKSSIDIENGFISESQYTYALKEKAKYQCKLGYVTADGETSGSITCGKDGWSAQPTCIKSGASGCDIPVFMNARTKNDFTWFKLNDTLDYECHDGYESNTGSTTGSIVCGYNGWSDLPICYERECELPKIDVHLVPDRKKDQYKVGEVLKFSCKPGFTIVGPNSVQCYHFGLSPDLPICKEQVQSCGPPPELLNGNVKEKTKEEYGHSEVVEYYCNPRFLMKGPNKIQCVDGEWTTLPVCIVEESTCGDIPELEHGWAQLSSPPYYYGDSVEFNCSESFTMIGHRSITCIHGVWTQLPQCVAIDKLKKCKSSNLIILEEHLKNKKEFDHNSNIRYRCRGKEGWIHTVCINGRWDPEVNCSMAQIQLCPPPPQIPNSHNMTTTLNYRDGEKVSVLCQENYLIQEGEEITCKDGRWQSIPLCVEKIPCSQPPQIEHGTINSSRSSQESYAHGTKLSYTCEGGFRISEENETTCYMGKWSSPPQCEGLPCKSPPEISHGVVAHMSDSYQYGEEVTYKCFEGFGIDGPAIAKCLGEKWSHPPSCIKTDCLSLPSFENAIPMGEKKDVYKAGEQVTYTCATYYKMDGASNVTCINSRWTGRPTCRDTSCVNPPTVQNAYIVSRQMSKYPSGERVRYQCRSPYEMFGDEEVMCLNGNWTEPPQCKDSTGKCGPPPPIDNGDITSFPLSVYAPASSVEYQCQNLYQLEGNKRITCRNGQWSEPPKCLHPCVISREIMENYNIALRWTAKQKLYSRTGESVEFVCKRGYRLSSRSHTLRTTCWDGKLEYPTCAKRGGSGHHHHHH
